Experimental data taken from publication PMC8750365.

Tests used:
[1] = target: Endogenous TOP1 of U2OS cells (human (endogenous in U2OS)) (UniProt P11387); test: proximity ligation
[2] = target: Endogenous TOP2A of U2OS cells (human (endogenous in U2OS)) (UniProt P11388); test: proximity ligation
UniProt P11388, sequence (P11388 whole entry): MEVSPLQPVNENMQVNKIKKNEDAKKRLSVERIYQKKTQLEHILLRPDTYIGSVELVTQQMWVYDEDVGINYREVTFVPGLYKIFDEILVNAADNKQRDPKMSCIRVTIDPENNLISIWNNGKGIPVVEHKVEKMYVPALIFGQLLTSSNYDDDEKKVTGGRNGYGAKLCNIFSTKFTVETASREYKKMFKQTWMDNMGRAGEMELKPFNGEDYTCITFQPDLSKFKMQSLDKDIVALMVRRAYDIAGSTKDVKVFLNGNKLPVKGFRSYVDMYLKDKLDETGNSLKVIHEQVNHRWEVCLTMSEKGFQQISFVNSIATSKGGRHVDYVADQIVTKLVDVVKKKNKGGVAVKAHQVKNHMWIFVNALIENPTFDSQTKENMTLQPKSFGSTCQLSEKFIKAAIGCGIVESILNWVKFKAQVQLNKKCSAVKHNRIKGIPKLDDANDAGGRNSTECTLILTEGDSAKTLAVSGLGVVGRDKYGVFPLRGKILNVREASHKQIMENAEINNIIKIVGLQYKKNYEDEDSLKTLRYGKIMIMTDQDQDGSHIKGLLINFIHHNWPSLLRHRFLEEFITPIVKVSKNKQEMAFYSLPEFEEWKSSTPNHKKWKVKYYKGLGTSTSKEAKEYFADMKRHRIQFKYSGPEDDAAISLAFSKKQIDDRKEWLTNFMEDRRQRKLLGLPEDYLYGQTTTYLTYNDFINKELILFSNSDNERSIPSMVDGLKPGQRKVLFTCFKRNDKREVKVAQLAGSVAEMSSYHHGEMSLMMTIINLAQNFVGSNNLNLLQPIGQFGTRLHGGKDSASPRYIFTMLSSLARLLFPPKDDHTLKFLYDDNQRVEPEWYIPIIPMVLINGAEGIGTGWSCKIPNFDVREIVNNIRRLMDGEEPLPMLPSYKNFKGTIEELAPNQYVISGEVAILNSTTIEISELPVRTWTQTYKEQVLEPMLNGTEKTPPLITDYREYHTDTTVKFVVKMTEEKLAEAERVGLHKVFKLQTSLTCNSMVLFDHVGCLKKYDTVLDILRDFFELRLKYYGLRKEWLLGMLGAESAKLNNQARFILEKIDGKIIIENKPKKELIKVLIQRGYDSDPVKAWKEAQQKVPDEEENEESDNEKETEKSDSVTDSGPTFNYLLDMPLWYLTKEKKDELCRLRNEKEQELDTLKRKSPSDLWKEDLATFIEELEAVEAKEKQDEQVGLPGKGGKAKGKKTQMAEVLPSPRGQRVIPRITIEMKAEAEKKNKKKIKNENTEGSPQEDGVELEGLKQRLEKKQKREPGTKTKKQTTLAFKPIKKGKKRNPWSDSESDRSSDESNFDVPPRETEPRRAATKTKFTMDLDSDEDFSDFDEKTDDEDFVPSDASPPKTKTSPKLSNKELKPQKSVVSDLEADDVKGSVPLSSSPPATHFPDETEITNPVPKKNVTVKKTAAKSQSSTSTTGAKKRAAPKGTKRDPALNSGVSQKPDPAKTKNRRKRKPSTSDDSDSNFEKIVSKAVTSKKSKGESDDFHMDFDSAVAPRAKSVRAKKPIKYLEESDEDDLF

UniProt P11387, sequence (P11387 whole entry): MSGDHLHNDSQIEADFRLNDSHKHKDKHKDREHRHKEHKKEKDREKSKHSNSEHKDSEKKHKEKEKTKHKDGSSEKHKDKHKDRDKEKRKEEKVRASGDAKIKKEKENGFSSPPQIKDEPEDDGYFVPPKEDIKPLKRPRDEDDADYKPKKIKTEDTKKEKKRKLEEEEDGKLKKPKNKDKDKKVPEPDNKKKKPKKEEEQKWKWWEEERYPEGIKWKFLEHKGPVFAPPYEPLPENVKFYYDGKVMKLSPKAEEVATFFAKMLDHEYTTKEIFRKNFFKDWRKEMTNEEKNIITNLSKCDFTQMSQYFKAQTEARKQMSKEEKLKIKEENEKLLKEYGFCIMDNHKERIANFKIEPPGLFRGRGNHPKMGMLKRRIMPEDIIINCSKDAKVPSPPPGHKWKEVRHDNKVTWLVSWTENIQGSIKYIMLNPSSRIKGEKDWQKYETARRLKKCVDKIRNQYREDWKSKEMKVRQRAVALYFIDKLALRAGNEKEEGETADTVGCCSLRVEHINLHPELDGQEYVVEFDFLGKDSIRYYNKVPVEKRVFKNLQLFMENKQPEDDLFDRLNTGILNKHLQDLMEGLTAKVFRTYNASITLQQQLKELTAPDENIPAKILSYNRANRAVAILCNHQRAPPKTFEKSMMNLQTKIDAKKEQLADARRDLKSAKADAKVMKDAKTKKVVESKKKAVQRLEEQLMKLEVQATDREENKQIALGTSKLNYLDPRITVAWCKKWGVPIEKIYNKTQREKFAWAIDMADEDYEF

Substance	PLA dots/cell (untreated cells) [1] [dots/cell]	PLA dots/cell (untreated cells) [2] [dots/cell]	PLA dots/cell (with Dox) [1] [dots/cell]	PLA dots/cell (with Dox) [2] [dots/cell]
Endogenous MYC of U2OS cells (from UniProt P01106 1-454) (natural protein)	60	60		
MYC-EGFP, doxycycline-inducible, in U2OS-MYC-EGFP cells (from UniProt P01106 1-454) (natural protein)			> 80	> 80
